Test results published in US8741844B2, “Use of mutated antithrombins for treating or preventing coagulation disorders” (Universite Paris-Sud XI, priority 2007, dated 2014).

How the values were obtained:
[1] = test system: pentasaccharide bound murine antithrombin (plasma anti-Xa activity); experiment: Anti factor Xa assay in mouse plasma supplemented with Fondaparinux; assay type: biochemical
Experimental: During the animal experimentation (see detailed protocol below), human mutated antithrombins compete with murine antithrombin for their binding to the pentasaccharide. Thus, preliminary in vitro assays are performed to determine the human mutated antithrombin concentration necessary to compete with the murine antithrombin present in mouse plasma supplemented with Fondaparinux.
These experiments are performed as described in section II-b, using mouse plasma instead of human plasma.

[2] = target: T1, factor Xa (Homo sapiens, UniProt P00742); experiment: Kinetic assay of factor Xa inhibition by antithrombins in a purified system (chromogenic substrate, continuous or discontinuous); assay type: biochemical; settings: for factor Xa inhibitory activity: with or without pentasaccharide, compared with plasma / wild type antithrombin; for factor Xa inhibition in continuous method: saturating pentasaccharide concentration; for anticoagulant / anti-factor Xa activity / inhibition rate constant (kon) for factor Xa: discontinuous method
T1 construct: purchased Kordia
Experimental: Briefly, factor Xa is incubated with an excess of tested antithrombins (corresponding to plasma antithrombin, or wild type antithrombin or mutated antithrombins and varying in each assay realized) in the presence or absence of pentasaccharide (Fondaparinux sodique, Arixtra®, GlaxoSmithKline) and the factor Xa residual activity is measured as a function of time. The pentasaccharide is added in excess in the reaction media so that every tested antithrombin is bound to the pentasaccharide. In the absence of pentasaccharide, polybrene is added in order to neutralize any sulfated glycosaminoglycan that may be present in the reaction media. The residual factor Xa activity is measured as the increase in absorbance at 405 nm resulting from cleavage of the chromogenic substrate (S2765 or S2222, Chromogenix) using a microplate reader (Dynatech MR 5000). The analysis of the data is performed using the GraphPad Prism version 3 software. Absorbance recording is continuous or discontinuous according to the expected inhibition rate constant (kon).
The inhibition rate constant (kon) is the second order rate constant given in M^−1·s^−1 which define the velocity of stable complex formation between protease and antithrombin (higher is the kon value, faster will the complex be established).
When the expected kon is lower than 10^4 M^−1·s^−1 the discontinuous method is used. Factor Xa (0.2 to 1 μM, or 0.1 to 1 μM) is incubated with tested antithrombins (0.2 to 10 μM, or 1 to 10 μM) in the presence of pentasaccharide (10 to 100 μM) or polybrene (100 μg/ml) in a final volume of 10 μl for 10 seconds to 5 hours, or 10 seconds to 24 hours. At the end of this incubation period, 190 μl of kinetic buffer containing 200 μM substrate is added and absorbance at 405 nm is recorded.
The kinetic rate constant (k) is estimated by fitting the substrate hydrolysis initial rate curve to equation (1) using non-linear regression with v0 and v∞ being the substrate hydrolysis rate at time to or too respectively. […] (1)
The inhibition rate constant (kon) is calculated from the rate constant (k) using equation (2) where AT is the tested antithrombin concentration. k=AT·kon (2)
When the expected kon is higher than 10^4 M^−1·s^−1′ the continuous method is used. The tested antithrombin (0.01 to 1 μM, or 0.1 to 1 μM) is incubated with the substrate (200 μM) in the presence of pentasaccharide or polybrene in a final volume of 100 μL, or 190 μl, and the reaction is started by addition of 100 μL, or 10 μL, of factor Xa (2 nM or 10 nM). The rate constant (k) is obtained by fitting the substrate hydrolysis curve to equation (3) or (3′) using non-linear regression analysis where A0 is the absorbance at t0, and vi and vs are respectively the initial and final rates of substrate hydrolysis in the absence of tested antithrombin. A405=A0+vi·(1−exp(−k·t))/k. (3) Equation (3′) is also used, particularly in presence of plasma. A405=A0+vs*t+(vi−vs)*(1−exp(−k·t))/k. (3′)
The inhibition rate constant (kon) is calculated from the kinetic constant (k) using equation (4) that takes into account the competitive effect of the substrate, with S being the initial substrate concentration, Km, the Michaelis constant for factor Xa-substrate interaction, AT the tested antithrombin concentration. k=(kon/(1+S/Km))·[AT] (4)
Mutated antithrombins and wild type AT inhibitory activity are measured in the same conditions and compared with plasma AT inhibitory activity.

[3] = test system: plasma anti FXa activity in mice treated with pentasaccharide; experiment: Murine model: mutated antithrombins as antidotes of fondaparinux, plasma anti FXa activity; assay type: in vivo, mouse; settings: injection of mutated antithrombin after fondaparinux
Experimental: The efficiency of the mutated antithrombins AT-R393H(SEQ ID NO: 4), AT-Pro394 (SEQ ID NO: 6), AT-ΔR393-S394 (SEQ ID NO: 18), AT-ΔR393 (SEQ ID NO: 8), AT-ΔS394 (SEQ ID NO: 10), AT-N135Q-R393H(SEQ ID NO: 14), AT-N135Q-Pro394 (SEQ ID NO: 16), AT-N135Q-ΔR393-S394 (SEQ ID NO: 24), AT-N135Q-ΔR393 (SEQ ID NO: 20), AT-N135Q-A5394 (SEQ ID NO: 22) as antidotes is evaluated in a murine model.
The different drugs to be tested (fondaparinux, low molecular weight heparin, full length heparin and the mutated antithrombins) are administrated by intra-venous injection in the caudal vein to avoid the variability encountered when administration is performed subcutaneously. However, Heparin derivatives (fondaparinux, low molecular weight heparin and full length heparin) could also be administrated subcutaneously.
The blood is collected by punction in cave vein into tubes containing 0.105 mol/L trisodium citrate (1:10). Platelet-poor plasma is obtained by centrifugation at 2300 g for 10 minutes at 12° C. and stored at −80° C. until use.
The following elements are determined: • the doses of fondaparinux inducing an overdose in mice, • the mutated antithrombins time course, and in particular the time required to observe a maximal biological effect, • the minimal doses of mutated antithrombins necessary to neutralize fondaparinux.
For each of these experiments, 4 groups of 5 mice each are used: • In the first group mice receive fondaparinux vehicle and then antidote (mutated antithrombin) vehicle. • In the second group, mice receive fondaparinux and then antidote vehicle • In the third group, mice receive fondaparinux vehicle and then antidote • In the last group, mice receive fondaparinux and then antidote
Anti FXa activity measurements is performed as previously described using a Stachrom Heparin® kit on a STA (Stago, France) or a Rotachrom Heparin® kit with procedure adapted for measurement in microplate reader (Dynatech MR 5000). A calibration curve with pentasaccharide is performed, allowing the expression of the results in nmol/ml (or in mg/L) of plasma.
Thus, the antidote (mutated antithrombins) is administered intravenously, 5 min after the intra-venous injection of the fondaparinux, and 5, 15 or 30 min after the subcutaneous injection of the fondaparinux.
The mutated antithrombin time course is studied by measuring the plasma anti-Xa activity 5 min, 10 min, 20 min and 40 min after the antidote administration.
Once the time of action determined, a dose response curve is performed in vivo to determine the dose of antidote necessary to obtain a decrease in Fondaparinux plasma concentration within the therapeutic range around 1.2 nmol/ml (or 2 mg/L), or around 0.7 nmol/ml (or 1.2 mg/L).

[4] = in the presence of pentasaccharide

T1 sequence (P00742 235-488 limits assumed): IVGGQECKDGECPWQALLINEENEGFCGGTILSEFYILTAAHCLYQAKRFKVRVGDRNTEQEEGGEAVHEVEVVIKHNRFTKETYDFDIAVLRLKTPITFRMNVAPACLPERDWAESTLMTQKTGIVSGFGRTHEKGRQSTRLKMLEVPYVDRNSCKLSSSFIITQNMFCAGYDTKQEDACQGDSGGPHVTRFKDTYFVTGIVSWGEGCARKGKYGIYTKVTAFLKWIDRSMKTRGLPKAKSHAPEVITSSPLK
T1 sequence (P00742 41-179 partner limits assumed): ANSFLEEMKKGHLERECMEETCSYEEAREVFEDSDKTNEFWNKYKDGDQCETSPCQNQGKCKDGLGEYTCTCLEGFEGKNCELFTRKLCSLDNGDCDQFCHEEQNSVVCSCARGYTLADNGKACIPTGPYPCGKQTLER

| Molecule | factor Xa inhibitory activity [2] | kon, times lower than plasma AT [2, 4] | effect on anti-Xa activity of pentasaccharide contained in mouse plasma [1] | plasma anti FXa activity in mice treated with pentasaccharide [3] | factor Xa inhibition in continuous method [2] | anticoagulant / anti-factor Xa activity [2, 4] | inhibition rate constant (kon) for factor Xa [2, 4] [M⁻¹ s⁻¹] |
| --- | --- | --- | --- | --- | --- | --- | --- |
| AT-N135Q-R393H: human antithrombin with substitution at 393 by Histidine and at 135 by Glutamine | negligible | – | significant decrease | significant decrease | slow factor Xa inhibitors | largely reduced | 4415 |
| AT-N135Q-ΔR393-S394: human antithrombin with deletion of positions 393 and 394 and substitution at 135 by Glutamine (protein, listed as Homo sapiens) HGSPVDICTAKPRDIPMNPMCIYRSPEKKATEDEGSEQKIPEATNRRVWELSKANSRFATTFYQHLADSKNDNDNIFLSPLSISTAFAMTKLGACNDTLQQLMEVFKFDTISEKTSDQIHFFFAKLNCRLYRKAQKSSKLVSANRLFGDKSLTFNETYQDISELVYGAKLQPLDFKENAEQSRAAINKWVSNKTEGRITDVIPSEAINELTVLVLVNTIYFKGLWKSKFSPENTRKELFYKADGESCSASMMYQEGKFRYRRVAEGTQVLELPFKGDDITMVLILPKPEKSLAKVEKELTPEVLQEWLDELEEMMLVVHMPRFRIEDGFSLKEQLQDMGLVDLFSPEKSKLPGIVAEGRDDLYVSDAFHKAFLEVNEEGSEAAASTAVVIAGLNPNRVTFKANRPFLVFIREVPLNTIIFMGRVANPCVK | negligible | – | significant decrease | significant decrease | – | – | – |
| AT-N135Q-Pro394: human antithrombin with Proline inserted between 393 and 394 and substitution at 135 by Glutamine (protein, listed as Homo sapiens) HGSPVDICTAKPRDIPMNPMCIYRSPEKKATEDEGSEQKIPEATNRRVWELSKANSRFATTFYQHLADSKNDNDNIFLSPLSISTAFAMTKLGACNDTLQQLMEVFKFDTISEKTSDQIHFFFAKLNCRLYRKAQKSSKLVSANRLFGDKSLTFNETYQDISELVYGAKLQPLDFKENAEQSRAAINKWVSNKTEGRITDVIPSEAINELTVLVLVNTIYFKGLWKSKFSPENTRKELFYKADGESCSASMMYQEGKFRYRRVAEGTQVLELPFKGDDITMVLILPKPEKSLAKVEKELTPEVLQEWLDELEEMMLVVHMPRFRIEDGFSLKEQLQDMGLVDLFSPEKSKLPGIVAEGRDDLYVSDAFHKAFLEVNEEGSEAAASTAVVIAGRPSLNPNRVTFKANRPFLVFIREVPLNTIIFMGRVANPCVK | negligible | at least 7600 times | significant decrease | significant decrease | slow factor Xa inhibitors | almost devoid of anti-factor Xa activity | 33 |

Further lines, with some results ahead:

| factor Xa inhibitory activity [2] | kon, times lower than plasma AT [2, 4] | Molecule | effect on anti-Xa activity of pentasaccharide contained in mouse plasma [1] | plasma anti FXa activity in mice treated with pentasaccharide [3] | factor Xa inhibition in continuous method [2] | anticoagulant / anti-factor Xa activity [2, 4] | inhibition rate constant (kon) for factor Xa [2, 4] [M⁻¹ s⁻¹] |
| --- | --- | --- | --- | --- | --- | --- | --- |
| negligible | – | AT-R393H: human antithrombin (SEQ ID NO:2) with substitution of the amino acid at position 393 by Histidine | significant decrease | significant decrease | – | – | – |
| negligible | – | AT-N135Q-ΔR393: human antithrombin with deletion of position 393 and substitution at 135 by Glutamine (protein, listed as Homo sapiens) HGSPVDICTAKPRDIPMNPMCIYRSPEKKATEDEGSEQKIPEATNRRVWELSKANSRFATTFYQHLADSKNDNDNIFLSPLSISTAFAMTKLGACNDTLQQLMEVFKFDTISEKTSDQIHFFFAKLNCRLYRKAQKSSKLVSANRLFGDKSLTFNETYQDISELVYGAKLQPLDFKENAEQSRAAINKWVSNKTEGRITDVIPSEAINELTVLVLVNTIYFKGLWKSKFSPENTRKELFYKADGESCSASMMYQEGKFRYRRVAEGTQVLELPFKGDDITMVLILPKPEKSLAKVEKELTPEVLQEWLDELEEMMLVVHMPRFRIEDGFSLKEQLQDMGLVDLFSPEKSKLPGIVAEGRDDLYVSDAFHKAFLEVNEEGSEAAASTAVVIAGSLNPNRVTFKANRPFLVFIREVPLNTIIFMGRVANPCVK | significant decrease | significant decrease | – | – | – |
| negligible | – | AT-N135Q-ΔS394: human antithrombin with deletion of position 394 and substitution at 135 by Glutamine (protein, listed as Homo sapiens) HGSPVDICTAKPRDIPMNPMCIYRSPEKKATEDEGSEQKIPEATNRRVWELSKANSRFATTFYQHLADSKNDNDNIFLSPLSISTAFAMTKLGACNDTLQQLMEVFKFDTISEKTSDQIHFFFAKLNCRLYRKAQKSSKLVSANRLFGDKSLTFNETYQDISELVYGAKLQPLDFKENAEQSRAAINKWVSNKTEGRITDVIPSEAINELTVLVLVNTIYFKGLWKSKFSPENTRKELFYKADGESCSASMMYQEGKFRYRRVAEGTQVLELPFKGDDITMVLILPKPEKSLAKVEKELTPEVLQEWLDELEEMMLVVHMPRFRIEDGFSLKEQLQDMGLVDLFSPEKSKLPGIVAEGRDDLYVSDAFHKAFLEVNEEGSEAAASTAVVIAGRLNPNRVTFKANRPFLVFIREVPLNTIIFMGRVANPCVK | significant decrease | significant decrease | – | – | – |
